Data on 15 sequences can be found in a protein production outcome set (Wang et al. 2014).

The nature of this data set: label from the status in PepcDB records.
On to “MLRLYKTIGRFNLINFQEDYPMKILVVGTGAREHAICSALADEATIYSVMGNRNPGISRLAGNSLLLLKLTPKVVRFASEKGVDMAFIGPEAHLEAGLVDALEEAGIPSVGPTRDAARIETDKSFMRKLFEDYRIPGSITYRVFSDPEELREFMEDFDSEAVVKPVGLTGGKGVKIVGEHLRDNMEALKYATEVIEKRIGGHPSVVIEERVVGEEFTVQAFSDGEHIVPMPAVQDHPHAYEGDQGPITGGMGSYSDSDGLLPFLTQKDYEDAVEIMQRTVDAIRKETGPYRGILYGQFMLSADGPKLIEYNARFGDPEAMNVLPLLESSMLEICEGIVDGNLKSASFMNLATVCKYLVPEGYPESGVAGAEIKVDEKKIEDMGVITYYAAVNQEDDHIYTSSSRALALVAPADDIYSAEELCEEATAHVKGRLYHRRDIGTRELVEKRIKHMEDLRS”, for which the protein production entry was “failed”. Consider “MLRSLRLAALLGSLLMAVAASARDIDAASYGYPLTNPFEATIATTPPDKRPELPSDDEITQSDYSLNLRPEREFTLPDNFWAVKKLKYRLARQDHEAPLIFIIAGTGAPYSSSINEYLKKLFYQAGFHVVQLSSPTSYDFMSAASRFATPGISQEDAEDMYRVMQAVRAQHPRLPVSDFYLTGYSLGALDAAFVSHLDETRRSFNFKRVLLLNPPVNLYTSINNLDKLVQTQVKGIDRSTTFYELMLEKLTRYFQDKGYIDLNDALLYDFQQSRQHLSNEQMAMLIGTSFRFSAADIAFTSDLINRRGLIIPPKFPITEGSSLTPFFKRALQCDFDCYMTEQVIPMWRARTDGNSILQLVNQVSLYALEDYLRSSDKIAVMHNADDVILGPGDIGFLRKVFGERLTLYPHGGHCGNLNYRVNSDAMLEFFRG”, for which the protein production entry is “failed”.

For “MRARLYAAFRQVGEDLFAQGLISATAGNFSVRTKGGFLITKSGVQKARLTPEDLLEVPLEGPIPEGASVESVVHREVYRRTGARALVHAHPRVAVALSFHLSRLRPLDLEGQHYLKEVPVLAPKTVSATEEAALSVAEALREHRACLLRGHGAFAVGLKEAPEEALLEAYGLMTTLEESAQILLYHRLWQGAGPALGGGE”, the protein production result was “not failed”. With “MLGAPAHRAASAAPVIRRTKGPDMPTRLTALLSPSRPSRPSRDDAAGPVAGTARPARGAGWATALSLALVCFVTYAALSVRLHQRMLTTGYDLGIFEQAVRSYAHGHLPVAELKGPGFPLLGDHFSPVLALLAPLYRVWPAPVTLLVAQAALFAVAVIPLARWAEEVRGRRAALVVGLGYGASWGVAQAVGFDFHEVCFAVPLLALSLTAVGRGRARAAALWALPLLLVKEDLGLTVAVVGLLIARTGERDDRRRGGALVLAGVLGSFLEMLVVIPAFNPGGTFAYSSSVPGAGSATPGAGELLLHYTVGLVTPDTKAQTVLALLSVTGFLAVRSPLLWAALPTLLWRFASDNQAYWGTGYHYSAVLMPVLFAAFVDALTRPGPVRYALAASAAVTVLLLPQFPLWQLTQPATWHTDSRLASARRLMDRIPDGATVAASNRLVPQLTNRARVSVFGLGGSRPDAEWIIDDSAQPQGWPIAPDDDRRLLSEVRNNGRYRTVADQDGYVLLQRRP”, the protein production entry is “failed”. As for “MRVAIAGAGAVGRSIAGELLENGHEVLLIDKAPTAISVERVPMAEWLLADACEITSLDEAALQRCNVVIAATGDDKVNLVVSLLAKTEYGVPRVVARVNNPKNEWLFNESWGVDVAVSTPRLMSALVEEAVSVGDLVRLLRFSHGDANLVELTLPEESALAGTQVGDVQWPEDTSLVTIIRGTRVLTPSREDSLEAGDELLFVAAQAREEQLEDLLSARRQPDGTL”, the protein production result was “failed”. As to “SSFQGPLDATVVVNLQSPTLEEKNEFPEDLRTELMQTLGSYGTIVLVRINQGQMLVTFADSHSALSVLDVDGMKVKGRAVKI”, the protein production result was “not failed”. On to “MSLSFTPLHTTSEAFIEKALPWLEDRYFHIAYLNPNGYTAYPQGAFRHYLAFGSEAAIHVSDATRVFETWNEIKKGYTNEWIFVFASYDGKNSVEQLHTSKEAGIAFAAATFFIPEHVWEIQPDGILIHKGSGSSLVTEIQHAEPSTPVQQSDIFVKQVVSKESYFNAFDELQQIIAQGDAYEINYCIPFTAKGNISPAATYQRLNKKTPMPFSVYYKFNTEYILSASPERFIKKTGDTIISQPIKGTSKRGKSKAEDEMLKQQLGTSEKEQSENTMIVDLVRNDLSRTAVAGSVCVPELSGLYTFPNVHQLISTVQSTIDPACSSIDVIQQAFPMGSMTGAPKVNVMKFIDRIESMARGPFSGTVGYMDPHDNFDFNVLIRSIFYNSATQELFMEAGSAITSYAKAETEYEECLLKITPMIHILNNQEGHHHHHH”, for which the protein production result is “not failed”. Regarding “MLETAALAAGMSWASGIRLYLAVLTAGVLARLGWLDLPPGLHVLESWWVIGIAGAMAAAEFVADKVPGFDTVWDGIQTFIRIPAGAILAAAAFGQLDPQWMVAAGLIGGTLAGTAHATKAGTRALINVSPEPFSNWVASFTEDITTAGGLLLAFFLPVVFLILLVLFLITAAWLLPKLWRGVRRLHAGLRGNADNQRP”, the protein production entry is reported as “failed”. As for “MRPRRWFAILVCLCCLVTAAWPAEVKGENKKKERLAVVTVDRVNVRQGPGVPYRPLANVHRGETYRLIDIKDGWLKIEWKKNKIGWIAASYAAPVREMEIVQEDRLRLRQEPGLDGRIIGHLAQGDQVIVIKEKGEWKQIVTKKAVGWVAASYLADAESPTGSRQTGVVTADSLNVRVAPSLDAERIGRLLHGERVEIVETKRDWYKIVTRSGLGGWVAAEYIEMKNGQAVGNPEEAVAESASPAAVDLVTIQGNGPRQYVKKWTRTPVQVLAGKTIVLDAGHGGKDGGAESVNGVTEKTLTMETAERLKEKLETYGARVVLTRVNDDYVPLSARVATARLYQADAFISLHYDSAEDEDASGITAYYYDRFADYGLAQSFQGPFSKLSALPFRGLAFGNYYVLRENERPSVLLELGYLSNRSDAEVVATDSYQETVTTAIVNAVRHYFQ”, the entry is “failed”. As for “QLIDIGVNLTNSSFHDQQAAIVERALEAGVTQMLLTGTSLAVSEQALELCQQLDASGAHLFATAGVHPHDAKAWDTDSERQLRLLLSEPRVRAVGECGLDFNRDFSPRPLQEKALEAQLTLAAQLRLPVFLHERDASERLLAILKDYRDHLTGAVVHCFTGEREALFAYLDLDLHIGITGWICDERRGTHLHPLVGNIPEGRLMLESDAPYLLPRSLRPKPKSGRNEPAFLPEVLREVALHRGESAEHTAAHTTATARDFFQLP”, the entry is “not failed”; as for “MTQPELTPAQRTEVELLARGRADKSRVLRDLKLPETPEAAHALLLRLGVWDEARTPYADRLRAALNAVELPVPDFDPAEERLDLTHLPTFAIDDEGNQDPDDAVGVEDLGGGLTRLWVHVADVAALVAPDSPLDLEARARGATLYLPDRTIGMLPDELVAKAGLGLHEVSPALSICLDLDPDGNAEAVDVLLTRVKVQRLAYQEAQARLEAGEEPFVTLARLARASRRLREGEGALSIDLPEVRVKADETGASVFPLPKPEMRTVVQECMTLAGWGTAIFADDNEIPLPFATQDYPTREVAGDTLPAMWARRKTLARTRFQPSPGPHHGMGLDLYAQATSPMRRYLDLVVHQQLRAFLAGRDPLSSKVMAAHIAESQMNADATRQAERLSRRHHTLRFIAAQPERVWDAVVVDRRGAQATLLIPDLAFDVQVNTPAAPGTALQVQFADIDLPQMRVRARSVLEHHHHHH”, “not failed”. “MSWKIIEKYRRILAQEEGNSPKRRGGKLTVCLVYPNRYGVAMSNLGFQAVHALLNAESDILCERAFLPDPDDLREYRRSGARLLSLESQEPLSSFDIIAFSVSFESDYLNIPVIFDLAGIPALAAERTGSHPLVMGGGAALFLNPEPVADFLDLIVVGEGEAILPTFLDHIRADGIGDRAMFLAGVAGLPGIYVPSLYATEYDGARLVSREAKDGAPEQVKRIWMAEPDGRATVSEILTPGTEFSDMYLVEVSRGCGRGCRFCAAGFIYHPYRQRSLDAVKAAVAEGLSHRRKIGLVGAAVSDFREIGELCRHILAEGGTVSVSSLRIDRLDEGMIEVLKASGHKTVALAPEGGSQRIRDLINKNLTEEQILAACDLLIGHDILNLKLYFIIGLPTETMDDLEEMALLVEKIRKRVIAAARKNKRLGEIILSVNPFVPKPFTPFQWCGMEDTPSLEKKLKYLQQTVGRLSNVRLIAESPKDAWLQALLSRGDRRLSGFLLRAAELGNWKRAAREFPVDTDFLVHRTIPLDEMLPWDVIASADAERLRREYLKATPPRLEHHHHHH”: the protein production result is “failed”. For “MFANWLLVSVSIGYIGLLFLIAHLGGKYRNKLEAKQQTIIYALSLGVYCTSWGFLGTTAQAANHSFTFLSVYLAPIVLFVFAWPFIQRIIKTSLKLKITSIADLLSARFGKSQTLAIIITLVALIGTMPYIALQLKAIVNSYQILQETQDLPIWQIGLVVSIILAVFTIIFGIRTIDITERHPGVMIAIAFESLVKLIAFLLVGLFVSFIIYDSPMDIWELSKDQFDIEKQFEFSNLFALFGMLIIVMSAFLCLPRQFQVMFVEIKDKKTSGMARWVLPVYLLIFGFFAAVLGLAGNLNYGSSLAADAYVLFLPALDGQVWLSLFAFLGAVSAASSMVIVSTIALSTMLSNEIVFPVMFNFSRQKQQDFNHFQLQLLFIRKTLVLLVIFLSYGLLLVSPPDALSSLGEVAFGAIAQIGPALFVAFYWRRATLAGVLAGIICGFTIWTVFNLIPQLGIYAHPLENTDLPKTTVITLIGLLINVIALWLVSLGTRQSIREQMQSEFFYTDRKKIKWSLPSQPKVDIVELELLVARFIGEEKATKCFEKFHSMNQTKDNKKFNEAILFHAENTLARVLGSASAKLVTSLAISSRGMAFDQVAKLVEDNSTQQLEFSRTVLQSAIENVSEGISVIDSELKLVAWNKQYLDIFSYPEAFIYIGCPISQLIHFNLSQQGYFAKDIDLRVKKRIQYIMEGSRHNTEYKLKNGKNIRIEGSPIPGGGFVMIFSDITQYRQTEEVLKEENTDLESRVQFRTAELEQANKELALANHELIQAQTKAEQAHVKKSQYLKACSHDLLQPLSAARLFSSAISLSPRVSNEEREQIKKIDNSLEIANSLLLDLNEIARIESGNITPTIEPIEIKELFTMLANEFNALTDEYHVEFHCKMSKTYVASDITLLARIVQNFLSNAFRYAHRCDKKNQSKVLLGCRRQGNEISIQVFDNGPGIPIDKQQQVFDQFTQLNNSNVMGPKGLGLGLNIAQSLANILEHKIDLKSKPGHGCLFSVNAPMTLAPAAKEQTLPPASMSLHGVGVLCIDNEPAILDGMSKLLSAWQCQVFTAVDAQQARELYAKHEDEIDILLVDYQLDGCQDDNTIMATDMLISERNDSSCSIDPVNGIGLIKQLRAMSPYALPAILITATTGENLMALTKQHNIGYLRKIIRPLALRALMSSLLTEELAKNYSQNNT”, the protein production entry is “failed”. For “DSFKNLENKYDGKIGIYTLNTDDKTNIKYNESYHFPICSVFKFLLVGAILDYDMHNQGFLDKKIPINQDDIGKLGYAPITAKNVGKTLTISQLNYAAILSDSPASNILVRELGGLQNLNKFIKKLGDNDTIITADEPEINYTQPHSNINKTTPKAITKDIYKLAFGNILDKKHKDIFIKYLQDNNTGANRIAFSMPKDWIIGDKTGTCGQYAATNDVAIIWPKNQQPIALGILYTNPNDKNAPSNEEIIQQAAKLIANDLTNTYK” the value was “not failed”; for “MSLTVKDILDAIQSPDSTPADIAALPLPESYRAITVHKDETEMFAGLETRDKDPRKSIHLDDVPVPELGPGEALVAVMASSVNYNSVWTSIFEPLSTFGFLERYGRVSDLAKRHDLPYHVIGSDLAGVVLRTGPGVNAWQAGDEVVAHCLSVELESSDGHNDTMLDPEQRIWGFETNFGGLAEIALVKSNQLMPKPDHLSWEEAAAPGLVNSTAYRQLVSRNGAGMKQGDNVLIWGASGGLGSYATQFALAGGANPICVVSSPQKAEICRAMGAEAIIDRNAEGYRFWKDENTQDPKEWKRFGKRIRELTGGEDIDIVFEHPGRETFGASVFVTRKGGTITTCASTSGYMHEYDNRYLWMSLKRIIGSHFANYREAWEANRLIAKGRIHPTLSKVYSLEDTGQAAYDVHRNLHQGKVGVLCLAPEEGLGVRDREKRAQHLDAINRFRNEGHHHHHH”, “not failed”.
